From patent US8409836B2, “Treatment of cellulosic material and enzymes useful therein” (Roal Oy, priority 2005, dated 2013)
“And” between values parts separate entries of the source, which are not always exact repeats. Equal entries are not always repeated.

How the values were obtained:
[1] = Xylanase activity on birch xylan; type: biochemical
Summary of the method: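 Xylanase activity measured on birch glucuronoxylan by the IUPAC 1987 standard procedure, using enzyme purified from Acremonium thermophilum ALKO4245 or Thermoascus aurantiacus ALKO4242 culture supernatant. Protein determined by dye-binding assay against a bovine serum albumin standard.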

[2] = Isoelectric focusing (PhastSystem), pI of purified protein; type: physicochemical; details: IEF gel
Experimental: The sample was dissolved in water and applied to a Superdex 75 HR 10/30 gel filtration column equilibrated with 20 mM sodium phosphate pH 6.0, containing 0.15 M NaCl. Fractions were collected and those containing endoglucanase activity were combined. The protein eluate was judged to be pure by SDS-polyacrylamide gel electrophoresis and the molecular mass was evaluated on the basis of molecular mass standards (prestained SDS-PAGE standards, Broad Range, Bio-Rad) to be 54 kDa. The pI of the purified protein, designated as Ct EG—54 was determined with PhastSystem (Pharmacia) to be ca 5.5.
The sample was applied to a Sephacryl S-100 HR 26/60 gel filtration column equilibrated with 50 mM sodium acetate buffer pH 5.0, containing 0.05 M NaCl. The protein fraction containing endoglucanase activity was eluted from the column with a retention volume corresponding to a molecular weight of 16 kDa. Collected fractions were combined, concentrated and gel filtration was repeated. The protein eluate was judged to be pure by SDS-polyacryl amide gel electrophoresis and the molecular weight was evaluated to be 28 kDa. The pI of the purified protein, designated as Ta EG—28, was determined in an IEF gel (PhastSystem, Pharmacia) to be about 3.5. The specific activity of Ta EG—28 at 50° C. was determined to be 4290 nkat/mg (procedure of IUPAC 1987, using CMC as substrate).
The active material from the anion exchange chromatography was applied to a Sephacryl S-300 HR 26/60 column equilibrated with 20 mM sodium phosphate pH 6.5, containing 0.15 M NaCl. The protein with β-glucosidase activity was eluted with a retention volume corresponding to a molecular weight of 243 kDa. The protein was judged to be pure by SDS-polyacrylamide gel electrophoresis and the molecular weight was evaluated to be 101 kDa. The pI of the purified protein, designated as At βG—101, was determined in an IEF gel (PhastSystem, Pharmacia) to be in the area of 5.6-4.9. The specific activity of At βG—101 at 50° C. was determined to be 1100 nkat/mg (using 4-nitrophenyl-β-D-glucopyranoside as substrate, Bailey and Linko, 1990).
The active material from the cation exchange chromatography was applied to a Sephacryl S-300 HR 26/60 column equilibrated with 20 mM sodium phosphate pH 7.0, containing 0.15 M NaCl. The protein with β-glucosidase activity was eluted with a retention volume corresponding to a molecular weight of 294 kDa. […] The protein was judged to be pure by SDS-polyacrylamide gel electrophoresis and the molecular weight was evaluated to be 81 kDa, representing most likely the monomeric form of the protein. […] The specific activity of the purified protein, designated as Ta βG—81, at 50° C. was determined to be 600 nkat/mg using 4-nitrophenyl-β-D-glucopyranoside as substrate (Bailey and Linko, 1990). […]

[3] = pH optimum of heterologously produced xylanase; type: biochemical; details: McIlvaine's buffer, pH range 3.0-8.0, birch xylan
Experimental: (§1) Thermoascus XYN—30/Xyn10A was produced in T. reesei and the pH optimum of the heterologously produced protein was determined in the universal McIlvaine's buffer within a pH range of 3.0-8.0 using birch xylan as substrate (FIG. 8A). The optimal pH was determined to be 4.5. The temperature optimum for the enzymatic activity of XYN—30 was determined to be 75° C. (FIG. 8B).

[4] = Temperature optimum of heterologously produced xylanase; type: biochemical; details: pH 5.3, 60 min reaction
Experimental: as §1

[5] = β-glucosidase activity on 4-nitrophenyl-β-D-glucopyranoside; type: biochemical
Experimental: Acremonium Thermophilum ALKO4245 was grown as described in Example 1. The pure β-glucosidase was obtained by sequential purification with hydrophobic interaction and anion exchange chromatography followed by gel filtration. The β-glucosidase activity of the fractions collected during purification was determined using 4-nitrophenyl-β-D-glucopyranoside as substrate (Bailey and Linko, 1990). Protein content was measured by BioRad Assay Kit (Bio-Rad Laboratories) using bovine serum albumine as standard.
Thermoascus aurantiacus ALKO4242 was grown as described in Example 1. The pure β-glucosidase was obtained by sequential purification with hydrophobic interaction, anion and cation exchange chromatography followed by gel filtration. The β-glucosidase activity of the fractions collected during purification was determined using 4-nitrophenyl-β-D-glucopyranoside as substrate (Bailey and Linko, 1990). Protein content was measured by BioRad Assay Kit (Bio-Rad Laboratories) using bovine serum albumine as standard.

[6] = Thermal stability of purified β-glucosidase; type: biochemical; details: 0.1 mg/ml BSA, pH 5.0, 60 min, 4-nitrophenyl-β-D-glucopyranoside
Experimental: Thermal stability of the purified β-glucosidase was determined at different temperatures. The reaction was performed in the presence of 0.1 mg/ml BSA at pH 5.0 for 60 min using 4-nitrophenyl-β-D-glucopyranoside as substrate. A. thermophilum βG—101 was stable up to 70° C. The Aspergillus reference enzyme (Novozym 188) retained 100% of activity up to 60°.
Thermal stability of the purified β-glucosidase was determined at different temperatures. The reaction was performed in the presence of 0.1 mg/ml BSA at pH 5.0 for 60 min using 4-nitrophenyl-β-D-glucopyranoside as substrate. T. aurantiacus βG—81 was stable up to 75° C. The Aspergillus reference enzyme (Novozym 188) retained 100% of activity up to 60° C.

[7] = pH optimum of heterologously produced β-glucosidases; type: biochemical; details: McIlvaine's buffer, pH range 3.0-8.0, 4-nitrophenyl-β-D-glucopyranoside
Experimental: (§2) The pH optimum of the heterologously produced β-glucosidases was determined in the universal McIlvaine's buffer within a pH range of 3.0-8.0 using 4-nitrophenyl-β-D-glucopyranoside as substrate. The pH optima for the Acremonium βG—101, Chaetomium βG—76, and Thermoascus βG—81 are pH 4.5, 5.5, and 4.5, respectively (FIG. 7 A). The optimal temperature for enzymatic activity of these β-glucosidases was determined at the temperature range of 50-85° C. as described above. The highest activity of the enzymes was determined to be at 70° C., 65° C., and 75° C. for the Acremonium βG—101/Cel3A, Chaetomium βG—76/Cel3A, and Thermoascus βG—81/Cel3A, respectively (FIG. 7 B).

[8] = Temperature optimum of heterologously produced β-glucosidases; type: biochemical; details: temperature range 50-85° C., 60 min
Experimental: as §2

[9] = tested on: Trichoderma-strains (A47 and Rut-C30); assay: Cellulase induction on βG_81 pretreated Nutriose in shake flask cultivation; type: cell-based; details: 7 days shake flask cultivation
Experimental: A high concentration starch hydrolysate mixture (Nutriose 74/968, Roquette) was treated with Thermoascus aurantiacus βG—81/Cel3A enriched enzyme preparation produced as described in Example 21 to produce a sugar mixture containing appreciable amounts of cellulase inducer (sophorose) to overcome the glucose repression.
The Ta βG—81/Cel3A enriched enzyme preparation was added to a 70% (w/w) Nutriose solution to a final concentration of 1 g total protein/liter. The container of the mixture was incubated in a water bath at 65° C. for 3 days with constant stirring and used as a carbon source in a shake flask medium for two different Trichoderma-strains (A47 and Rut-C30). The effect of the enzyme treatment was measured as an endoglucanase activity formed during a 7 days shake flask cultivation. As a reference cultivations were performed under the same conditions with untreated Nutriose as a carbon source.

Ta XYN_30: xylanase of Thermoascus aurantiacus ALKO4242, gene Ta xyn10A, amino acid SEQ ID NO: 18
Xylanase activity of the preparation ([1]; assayed according to Bailey et al., 1992): 132 000 nkat/ml
Specific activity on birch xylan ([1]; purified xylanase, 50° C., procedure of IUPAC 1987): 4800 nkat/mg
pI of the purified protein [2]: ca. 6.8
pH optimum [3]: 4.5
Temperature optimum [4]: 75 °C

B1: Ta βG_81: beta-glucosidase of Thermoascus aurantiacus ALKO4242, gene Ta cel3A, amino acid SEQ ID NO: 22 (protein)
chain: MRLGWLELAVAAAATVASAKDDLAYSPPFYPSPWMNGNGEWAEAYRRAVDFVSQLTLAEKVNLTTGVGWMQEKCVGETGSIPRLGFRGLCLQDSPLGVRFADYVSAFPAGVNVAATWDKNLAYLRGKAMGEEHRGKGVDVQLGPVAGPLGRHPDGGRNWEGFSPDPVLTGVLMAETIKGIQDAGVIACAKHFIGNEMEHFRQAGEAVGYGFDITESVSSNIDDKTLHELYLWPFADAVRAGVGSFMCSYNQVNNSYSCSNSYLLNKLLKSELDFQGFVMSDWGAHHSGVGAALAGLDMSMPGDTAFGTGKSFWGTNLTIAVLNGTVPEWRVDDMAVRIMAAFYKVGRDRYQVPVNFDSWTKDEYGYEHALVGQNYVKVNDKVDVRADHADIIRQIGSASVVLLKNDGGLPLTGYEKFTGVFGEDAGSNRWGADGCSDRGCDNGTLAMGWGSGTADFPYLVTPEQAIQNEILSKGKGLDSVSIVFVNADSGEGYINVDGNEGDRKNLTLWKGGEEVIKTVAANCNNTIVVMHTVGPVLIDEWYDNPNVTAIVWAGLPGQESGNSLVDVLYGRVSPGGKTPFTWGKTRESYGAPLLTKPNNGKGAPQDDFTEGVFIDYRRFDKYNETPIYEFGFGLSYTTFEYSNIYVQPLNARPYTPASGSTKAAPTFGNISTDYADYLYPEDIHKVPLYIYPWLNTTDPEEVLRRSRLTEMKAEDYIPSGATDGSPQPILPAGGAPGGNPGLYDEMYRVSAIITNTGNVVGDEVPQLYVSLGGPDDPKVVLRNFDRITLHPGQQTMWTTTLTRRDISNWDPASQNWVVTKYPKTVYIGSSSRKLHLQAPLPPY
β-glucosidase activity of the preparation ([5]; according to Bailey and Linko, 1990, listed as Ta βG—81/Cel3A): 6270 nkat/ml and 11500 nkat/ml
Specific activity on 4-nitrophenyl-β-D-glucopyranoside ([5]; purified β-glucosidase, 50° C.): 600 nkat/mg
Thermal stability: temperature up to which stable / 100% of activity retained [6]: up to 75 °C
pI of the purified protein [2]: > 5.85 and 4.55
pH optimum [7]: 4.5
Temperature of highest activity [8]: 75 °C
Endoglucanase activity formed on pretreated Nutriose versus untreated Nutriose [9]: More than two-fold increase
